These results are taken from the DeepSol protein solubility set.

A short description of this series: soluble on expression in E. coli; label from the status in PepcDB or PDB records.
Regarding “MGHHHHHHSHMEGMDVDLDPELMQKFSCLGTTDKDVLISEFQRLLGFQLNPAGCAFFLDMTNWSLQAAIGAYYDFESPNISVPSMSFVEDVTIGEGESIPPDTQFVKTWRIQNSDVIWVILSVEVGGLLGVTQQLSSFETEFNTQPHRKVEGNFNPFASPQKNRQSDENNLKDPGGSEFDSISKNTWAPAPDTWAPAPDQTEQDQNRLSQNSVNLSPSSHANNLSVVTYSKGLHGPYPFGQS”, the “soluble on expression in E. coli” value was “soluble”. Consider “MAHHHHHHMSGKLEDIGELVLLIGDFHSPMRNLGLPDCFKDLLKTDKIKHVLCTGNVGCRENLELLKNIADSVHITKGDMDDEYDFPEDISLTIGDFKMSLIHGHQIIPWGDTNALLQWQKKHDSDIVISGHTHKNSIVRYEGKYFINPGSATGAFQPWLSQPTPSFILMAVAKSSIVVYVYEEKNGKTNVEMSELQK”, for which the “soluble on expression in E. coli” value is given as “not soluble”. The result for “MNKPLMSKATAVWLIDNTTLSFRQIADFCGMHELEVQGIADGDVATGVKGFDPVANNQLDAIEIEKGQRDPLYKMKLKFNPAAVGEEKRRGPRYTPLSKRQDRPAAILWLVKFHPELSDGAIAKLVGTTKPTIQSIRERTHWNIGSIQPIDPVALGLCRQTELDAAVQQAARRKAAEGVVMSDDERRKLVSTEQSLSMPDEPRMPSGLEQFGRSEEEKRPADFSDADSFFNLPHGDDADEEEDEDPARAAALEHHHHHH” reads “soluble”; that for “MGCSSSALNKAGDSSRFPSVTSNEHFSTAEESESCFAQPKPHALGRESTVDGNVQRESRPPLQKLKVSAEPTANGVKPLQEQPLAKDVAPGRDATDQSGSTEKTQPGEGLEESGPPQPGGKEDAPAAEGKKKDAGAGTEAESLKGNAEAQPLGPEAKGQPLQAAVEKDSLRAVEVTENPQTAAEMKPLGTTENVLTLQIAGELQPQGTVGKDEQAPLLETISKENESPEILEGSQFVETAEEQQLQATLGKEEQPQLLERIPKENVTPEVLDRSQLVEKPVMNDPFHKTPEGPGNMEQIQPEGIVGSMEHPARNVEAGAYVEMIRNIHTNEEDQRIEGETGEKVETDMENEKVSEGAETKEEETGEVVDLSAAT”, “soluble”. The result for “MGSDKIHHHHHHMLNEMEKTVLQMIMAGSDISRVDISRALGISKPVVSKAVNRLIELGFVKEAGRKESSSKGGRKPVLLSFVPESRYVIGVDIGGTKIDAVLTDLVGNVLNKEHILLPSNLDKRKLLELIKKVIHPFLVYERILGIGIGIPGTVDEDHLVKRIPAFDVTDWDLKEELEKTFGYPVFVENNANLDAFAEAKIGAGRGFRCVLLISVGWGIGSGIVYDGKIFRGARGKAGEFGHIVTDWSKEKEIVLEKGFGHLEEWFSGFSMSKRFGKSPEWVFEKRHNEIKKNLEHFGVAVANAIVLFDPDVVIIKGGIGLHQFEKISAVVRSVVSKIVPEDILKDVEIRKGEIEEYGVAIGGALFVIENILGLKGGGKYEGCQASREVGSKAGV” reads “not soluble”; that for “SLRRWDQGLEKPRLDYSEFFTEDVGQLPGLTIWQIENFVPVLVEEAFHGKFYEADCYIVLKTFLDDSGSLNWEIYYWIGGEATLDKKACSAIHAVNLRNYLGAECRTVREEMGDESEEFLQVFDNDISYIEGGTASGFYTVEDTHYVTRMYRVYGKKNIKLEPVPLKGSSLDPRFVFLLDQGLDIYVWRGAQATLSNTTKARLFAEKINKNERKGKAEITLLVQGQEPPGFWDVLGGEPSEIKNHVPDDFWPPQPKLYKVGLGLGYLELPQINYKLSVEHKKRPKVELMPGMRLLQSLLDTRCVYILDCWSDVFIWLGRKSPRLVRAAALKLGQELCGMLHRPRHTVVSRSLEGTEAQVFKAKFKNWDDVLTVDYTRNAEAVLQGQGLSGKVKRDTEKTDQMKADLTALFLPRQPPMPLAEAEQLMEEWNEDLDGMEGFVLEGRKFTRLPEEEFGHFYTQDCYVFLCRYWVPVEYEEEEKTEDKEGKASAEAREGEEAAAEAEEKQPEEDFQCIVYFWQGREASNMGWLTFTFSLQKKFESLFPGKLEVVRMTQQQENPKFLSHFKRKFIIHRGKRKVTQGTLQPTLYQIRTNGSALCTRCIQINTDSSLLNSEFCFILKVPFESEDNQGIVYAWVGRASDPDEAKLAEDILNTMFDASYSKQVINEGEEPENFFWVGIGAQKPYDDDAEYMKHTRLFRCSNEKGYFAVTEKCSDFCQDDLADDDIMLLDNGQEVYMWVGTQTSQVEIKLSLKACQVYIQHTRSKEHERPRRLRLVRKGNEQRAFTRCFHAWSTFRQAPA”, “not soluble”.

For the sequence “MSLNKLSNVTLSAEQEKLRERVLSFMRSNLSQYKSDWKHPAMFVIQGDAGTGKSVILNSLFNEIQKLSQFSPSSEDILHGTHNYLVVNHPEMLKLYIRISDSFKYISKSSLERPTSLINNLQKRKVMADVVIVDEAHLLATSKDAFKRFYGENHLKDLMSLCKVLVLVYDDKQALRMGSYWDEGSNNGATLKDFYNEIPPKSRDWYTLKQQFRVAAPQNVLNWIDQISVAGKEGHHHHHH”, the “soluble on expression in E. coli” value is “not soluble”. On to “MTPPRVLSIAGSDSGGGAGIQADMRTMALLGVHACVAVTAVTVQNTLGVKDIHEVPNDVVAGQIEAVVTDIGVQAAKTGMLASSRIVATVAATWRRLELSVPLVVDPVCASMHGDPLLAPSALDSLRGQLFPLATLLTPNLDEARLLVDIEVVDAESQRAAAKALHALGPQWVLVKGGHLRSSDGSCDLLYDGVSCYQFDAQRLPTGDDHGGGDTLATAIAAALAHGFTVPDAVDFGKRWVTECLRAAYPLGRGHGPVSPLFRLS”, for which the “soluble on expression in E. coli” value is on record as “not soluble”. The result for “APGVSTILDNRNNPIAWVYKQRRFEIPSEAIPQSMKDAIVSIEDRRFYEHKGVDIQGNLRAIVTNIFAGGVAQGASTIDQQYVKNFLLLVKSDNPEEQAAATETSIPRKLREMRMASTIDSTLSKDDILTRYLNLVHLGNGAFGVEAAARTYFGKGAPELSLAQSAMFAGIVQSSSY” reads “not soluble”; that for “MASVVGTPKSAEQIQQEWDTNPRWKDVTRTYSAEDVVALQGSVVEEHTLARRGAEVLWEQLHDLEWVNALGALTGNMAVQQVRAGLKAIYLSGWQVAGDANLSGHTYPDQSLYPANSVPQVVRRINNALQRADQIAKIEGDTSVENWLAPIVADGEAGFGGALNVYELQKALIAAGVAGSHWEDQLASEKKSGHLGGKVLIPTQQHIRTLTSARLAADVADVPTVVIARTDAEAATLITSDVDERDQPFITGERTREGFYRTKNGIEPCIARAKAYAPFADLIWMETGTPDLEAARQFSEAVKAEYPDQMLAYNCSPSFNWKKHLDDATIAKFQKELAAMGFKFQFITLAGFHALNYSMFDLAYGYAQNQMSAYVELQEREFAAEERGYTATKHQREVGAGYFDRIATTVDPNSSTTALTGSTEEGQFH”, “soluble”; that for “MASSTISLQSISMTTLNNLSYSKQFHRSSLLGFSKSFQNFGISSNGPGSSSPTSFTPKKKLTPTRALSQNLGNTENPRPSKVQELSVYEINDLDRHSPKILKNAFSFRFGLGDLVPFTNKLYTGDLKKRVGITAGLCVVIEHVPEKNGDRFEATYSFYFGDYGHLSVQGPYLTYEDSFLAITGGAGIFEGAYGQVKLQQLVYPTKLFYTFYLKGLANDLPLELIGTPVPPSKDVEPAPEAKALKPSGVVSNFTN”, “soluble”. For “GAEVDQATKPAEAKYYIAGTITDATTGQELTTAKVTLGDKSVTSSFNEQVNYKAEGYALVVSADGYYPVKRQVYLNQVSDGQTSVATVNVALVSVEAAVIPPVVPPTDPETDINEGEATKVADKAVEVAKPSESTVTDMLAGTTATPEEKKALDETLEMAGGMKVGETTPEVLADGSILAITPVKFTNPIQDAPAMVPYFYNEGCELTGDVKEVAAPVTRADGAVAADIQKAFLSNAAKALNMNAGFVQKIGYTRISVLNGYSILGYTIKGQLVSKKLTFLISGKYYEGIVSYQKSVMIYPNYYSHDSHDSHDSHGFNPNAGGGSND”, the “soluble on expression in E. coli” value was “soluble”. The result for “MSLDAHNFFKAGPYAPLAARMRPQSLDEVVGQRHLLDSGKPLQRLIAGSGDASVILYGPPGTGKTTIASLISAGTGHEFVGLSALNSGVKEIREVIDQARRNLIHGKRTVLFIDEVHRFSKTQQDALLAAVENRTVLLVAATTENPSFSVVAPLLSRSLILQLKPLTHDDIKTVLLHALQDKRGLDNRITISDEALEQLVLLSGGDARRSLTYLEAASESLADGEELTPEIIRHNVDKAIVRYDRDGDQHYDVVSAFIKSMRGSDVDAALHYLARMIDAGEDPRFIARRLVIHASEDVGMADPQALSVAVAASQAVALIGMPEARINLAQATIHLATAPKSNAVITAIDAALADVKQGKTGPVPAHLRDGHYAGAKQLGNAVGYKYPHDDPRGIVEQQYIPNGLEDVVYYRPSEHGAEQRIESYLGKLRRIVRGQREGHHHHHH” reads “soluble”.
